Patent publication US20150232572A1 (UNIVERSIT DE LI GE, published 2015)

Tests used:
[1] = molecular target: T1, recombinant MMP2 catalytic domain (UniProt P08253 110-452, limits assumed); assay: Western blot
T1 construct: domain: catalytic domain

[2] = molecular target: T2, recombinant MT3-MMP (MMP16) catalytic domain (UniProt P51512 120-292, limits assumed); assay: ELISA
T2 construct: domain: catalytic domain

[3] = molecular target: T3, recombinant MT1-MMP (MMP14) catalytic domain (UniProt P50281 112-284, limits assumed); assay: ELISA
T3 construct: domain: catalytic domain

T1 sequence (P08253 110-452 limits assumed): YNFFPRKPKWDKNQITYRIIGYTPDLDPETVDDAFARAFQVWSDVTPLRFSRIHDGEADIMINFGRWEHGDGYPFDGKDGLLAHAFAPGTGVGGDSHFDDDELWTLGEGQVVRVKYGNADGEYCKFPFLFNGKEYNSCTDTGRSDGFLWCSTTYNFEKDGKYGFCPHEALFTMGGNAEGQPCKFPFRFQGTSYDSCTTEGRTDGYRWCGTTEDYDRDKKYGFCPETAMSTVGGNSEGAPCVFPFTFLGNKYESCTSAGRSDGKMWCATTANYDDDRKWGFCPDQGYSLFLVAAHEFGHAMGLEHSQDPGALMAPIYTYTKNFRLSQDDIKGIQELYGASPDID
T2 sequence (P51512 120-292 limits assumed): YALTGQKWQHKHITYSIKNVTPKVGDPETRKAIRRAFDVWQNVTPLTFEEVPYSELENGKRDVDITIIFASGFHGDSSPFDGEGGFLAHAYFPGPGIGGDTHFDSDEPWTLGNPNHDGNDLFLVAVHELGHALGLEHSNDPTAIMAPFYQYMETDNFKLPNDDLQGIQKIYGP

B1: K4H7 scFv antibody (scFv)
scFv: QVQLVQSGGGLVKPGRSLRLSCTASGFTFGDYAMSWFRQAPGKGLEWVGFIRSKAYGGTTEYAASVKGRFTISRDDSKSIAYLQMNSLKTEDTAVYYCTRGSSGWFLNWFDPWGQGTLVTVSSLEGGGGSGGGGSGGGGSELETTLTQSPATLSLSPGERATLSCRASQSISSSYLAWYQHKPGQAPRLLIYGASRRATGIPDRFSGSGSGTDFSLTISRLEPEDFAVYYCLHYGSSKWTFGQGTKVEIKR
notes: Human scFv from the VTT naive phage display libraries; Purified scFv clones contain a myc tag (produced as soluble scFv-myc-his fusions); also called K4H7 clone; scFV clone K4H7
binding result [1]: no binding (tested: scFv 1 µg/ml)
binding result [2]: no binding (tested: 3 µg of recombinant protein)
binding result [3]: no binding (tested: 3 µg of recombinant protein)
